Test results taken from the supplement of paper PMC10567573.

B1: PLAGL1 (parent)
chain: LELGSTEVLLDHLKAHAEEKPPSG

Variants of: B1
Experiment: protein stability index of a GFP-peptide fusion (GPS, HEK-293T) (PSI 1-6); higher = more stable
Conditions: c terminus: a fixed tail appended
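Further: lentivirally expressed fusions sorted by FACS into six bins by GFP to DsRed ratio, PSI derived from sequencing read proportions per bin multiplied by bin number.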

| Variant | protein stability index |
| --- | --- |
| LELGSTEVLLDHLKAHAEEKPPEG [S23E] | 4.89 |
| LELGSTEVLLDHLKAHAEEKPPGG [S23G] | 4.43 |
| LELGSTEVLLDHLKAHAEEKPPDG [S23D] | 5.1 |
| LELGSTEVLLDHLKAHAEEKPPMG [S23M] | 4.15 |
| LELGSTEVLLDHLKAHAEEKPPAG [S23A] | 3.76 |
| LELGSTEVLLDHLKAHAEEKPPLG [S23L] | 4.22 |
| LELGSTEVLLDHLKAHAEEKPPQG [S23Q] | 4.71 |
| LELGSTEVLLDHLKAHAEEKPPVG [S23V] | 4.34 |
| LELGSTEVLLDHLKAHAEEKPPNG [S23N] | 4.47 |
| LELGSTEVLLDHLKAHAEEKPPWG [S23W] | 3.22 |
| LELGSTEVLLDHLKAHAEEKPPRG [S23R] | 4.4 |
| LELGSTEVLLDHLKAHAEEKPPCG [S23C] | 4.35 |
| LELGSTEVLLDHLKAHAEEKPPYG [S23Y] | 3.79 |
| LELGSTEVLLDHLKAHAEEKPPPG [S23P] | 4.5 |
| LELGSTEVLLDHLKAHAEEKPPFG [S23F] | 3.72 |
| LELGSTEVLLDHLKAHAEEKPPIG [S23I] | 4.1 |
| LELGSTEVLLDHLKAHAEEKPPTG [S23T] | 4.17 |
| LELGSTEVLLDHLKAHAEEKPPKG [S23K] | 4.28 |
| LELGSTEVLLDHLKAHAEEKPPHG [S23H] | 4.17 |
| LELGSTEVLLDHLKAHAEEKPDSG [P22D] | 4.88 |
| LELGSTEVLLDHLKAHAEEKPISG [P22I] | 4.06 |
| LELGSTEVLLDHLKAHAEEKPYSG [P22Y] | 3.9 |
| LELGSTEVLLDHLKAHAEEKPQSG [P22Q] | 4.85 |
| LELGSTEVLLDHLKAHAEEKPCSG [P22C] | 4.58 |

| Variant | protein stability index |
| --- | --- |
| LELGSTEVLLDHLKAHAEEKPNSG [P22N] | 4.95 |
| LELGSTEVLLDHLKAHAEEKPTSG [P22T] | 4.88 |
| LELGSTEVLLDHLKAHAEEKPESG [P22E] | 5.08 |
| LELGSTEVLLDHLKAHAEEKPLSG [P22L] | 3.9 |
| LELGSTEVLLDHLKAHAEEKPASG [P22A] | 4.49 |
| LELGSTEVLLDHLKAHAEEKPKSG [P22K] | 4.25 |
| LELGSTEVLLDHLKAHAEEKPHSG [P22H] | 4.03 |
| LELGSTEVLLDHLKAHAEEKPRSG [P22R] | 4.1 |
| LELGSTEVLLDHLKAHAEEKPFSG [P22F] | 3.35 |
| LELGSTEVLLDHLKAHAEEKPGSG [P22G] | 4.4 |
| LELGSTEVLLDHLKAHAEEKPVSG [P22V] | 3.81 |
| LELGSTEVLLDHLKAHAEEKPWSG [P22W] | 3.38 |
| LELGSTEVLLDHLKAHAEEKPSSG [P22S] | 4.79 |
| LELGSTEVLLDHLKAHAEEKPMSG [P22M] | 3.85 |
| LELGSTEVLLDHLKAHAELKPPSG [E19L] | 2.64 |
| LELGSTEVLLDHLKAHAERKPPSG [E19R] | 3.58 |
| LELGSTEVLLDHLKAHAEMKPPSG [E19M] | 3.41 |
| LELGSTEVLLDHLKAHAEVKPPSG [E19V] | 3.27 |
| LELGSTEVLLDHLKAHAECKPPSG [E19C] | 3.12 |
| LELGSTEVLLDHLKAHAEQKPPSG [E19Q] | 3.89 |
| LELGSTEVLLDHLKAHAEDKPPSG [E19D] | 4.48 |
| LELGSTEVLLDHLKAHAETKPPSG [E19T] | 3.55 |
| LELGSTEVLLDHLKAHAEWKPPSG [E19W] | 3.23 |
| LELGSTEVLLDHLKAHAESKPPSG [E19S] | 3.65 |

| Variant | protein stability index |
| --- | --- |
| LELGSTEVLLDHLKAHAEKKPPSG [E19K] | 3.55 |
| LELGSTEVLLDHLKAHAEHKPPSG [E19H] | 3.61 |
| LELGSTEVLLDHLKAHAEAKPPSG [E19A] | 3.73 |
| LELGSTEVLLDHLKAHAEYKPPSG [E19Y] | 3.32 |
| LELGSTEVLLDHLKAHAENKPPSG [E19N] | 4.03 |
| LELGSTEVLLDHLKAHAEIKPPSG [E19I] | 3.14 |
| LELGSTEVLLDHLKAHAEPKPPSG [E19P] | 4.28 |
| LELGSTEVLLDHLKAHAEFKPPSG [E19F] | 2.33 |
| LELGSTEVLLDHLKAHAEGKPPSG [E19G] | 2.45 |
| LELGSTEVLLDHLKAHAEEMPPSG [K20M] | 4.01 |
| LELGSTEVLLDHLKAHAEERPPSG [K20R] | 4.26 |
| LELGSTEVLLDHLKAHAEETPPSG [K20T] | 4.86 |
| LELGSTEVLLDHLKAHAEECPPSG [K20C] | 4 |
| LELGSTEVLLDHLKAHAEEVPPSG [K20V] | 4.41 |
| LELGSTEVLLDHLKAHAEEDPPSG [K20D] | 4.64 |
| LELGSTEVLLDHLKAHAEEIPPSG [K20I] | 3.71 |
| LELGSTEVLLDHLKAHAEEPPPSG [K20P] | 4.88 |
| LELGSTEVLLDHLKAHAEEAPPSG [K20A] | 4.56 |
| LELGSTEVLLDHLKAHAEEEPPSG [K20E] | 5.18 |
| LELGSTEVLLDHLKAHAEEQPPSG [K20Q] | 3.56 |
| LELGSTEVLLDHLKAHAEESPPSG [K20S] | 4.21 |
| LELGSTEVLLDHLKAHAEELPPSG [K20L] | 3.9 |
| LELGSTEVLLDHLKAHAEEGPPSG [K20G] | 4.22 |
| LELGSTEVLLDHLKAHAEENPPSG [K20N] | 4.58 |

| Variant | protein stability index |
| --- | --- |
| LELGSTEVLLDHLKAHAEEWPPSG [K20W] | 4.06 |
| LELGSTEVLLDHLKAHAEEFPPSG [K20F] | 2.9 |
| LELGSTEVLLDHLKAHAEEYPPSG [K20Y] | 3.6 |
| LELGSTEVLLDHLKAHAEEHPPSG [K20H] | 3.59 |
| LELGSTEVLLDHLKAHWEEKPPSG [A17W] | 3.35 |
| LELGSTEVLLDHLKAHNEEKPPSG [A17N] | 4.7 |
| LELGSTEVLLDHLKAHVEEKPPSG [A17V] | 3.88 |
| LELGSTEVLLDHLKAHCEEKPPSG [A17C] | 3.74 |
| LELGSTEVLLDHLKAHFEEKPPSG [A17F] | 2.97 |
| LELGSTEVLLDHLKAHLEEKPPSG [A17L] | 3.21 |
| LELGSTEVLLDHLKAHGEEKPPSG [A17G] | 4.35 |
| LELGSTEVLLDHLKAHMEEKPPSG [A17M] | 2.74 |
| LELGSTEVLLDHLKAHIEEKPPSG [A17I] | 3.37 |
| LELGSTEVLLDHLKAHEEEKPPSG [A17E] | 4.67 |
| LELGSTEVLLDHLKAHREEKPPSG [A17R] | 4.39 |
| LELGSTEVLLDHLKAHTEEKPPSG [A17T] | 4.16 |
| LELGSTEVLLDHLKAHPEEKPPSG [A17P] | 4.66 |
| LELGSTEVLLDHLKAHYEEKPPSG [A17Y] | 3.4 |
| LELGSTEVLLDHLKAHQEEKPPSG [A17Q] | 4.65 |
| LELGSTEVLLDHLKAHSEEKPPSG [A17S] | 4.01 |
| LELGSTEVLLDHLKAHDEEKPPSG [A17D] | 4.66 |
| LELGSTEVLLDHLKAHHEEKPPSG [A17H] | 4.13 |
